# Reference: patent US20150276749A1 (KONICA MINOLTA, published 2015)
# T1: soluble-type human DSG3-mouse IgG2aFc fusion protein (human; mouse, UniProt P32926 50-616)
# T1 construct: also called human desmoglein 3; desmoglein 3 standard; not shown: mouse IgG2a Fc, printed 'mouse IgG2aFc' and 'mouse IgG2 constant region'
# T1 sequence: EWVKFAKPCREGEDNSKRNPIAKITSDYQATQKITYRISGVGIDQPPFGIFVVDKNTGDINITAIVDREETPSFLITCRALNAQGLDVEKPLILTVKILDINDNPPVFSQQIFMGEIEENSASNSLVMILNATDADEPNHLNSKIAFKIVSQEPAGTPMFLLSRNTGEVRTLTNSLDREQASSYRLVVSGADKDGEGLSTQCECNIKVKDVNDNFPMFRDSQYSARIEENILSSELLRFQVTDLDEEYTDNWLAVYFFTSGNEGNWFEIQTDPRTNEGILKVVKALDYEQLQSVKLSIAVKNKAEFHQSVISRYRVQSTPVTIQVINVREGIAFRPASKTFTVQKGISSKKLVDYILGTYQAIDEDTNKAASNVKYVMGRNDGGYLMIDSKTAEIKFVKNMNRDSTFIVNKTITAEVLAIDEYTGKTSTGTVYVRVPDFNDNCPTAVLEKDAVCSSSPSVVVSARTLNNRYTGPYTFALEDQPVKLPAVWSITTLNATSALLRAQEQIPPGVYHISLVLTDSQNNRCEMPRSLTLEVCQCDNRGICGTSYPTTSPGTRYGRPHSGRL
# B1: DF151 (DF151[I] antibody) (antibody, mouse IgG2b, kappa, V domains shown)
# VH: EVQLQQSGPELVKPGASVKISCKASGYSFTAYYMHWVKQSPEKCLEWIGQINPSTGGTTYNQKFKAKATLTVDKSSSTAYMQLKSLTSEDSAVYYCARWGDSWGQGTTLTVSS
# VL: DIVLTQSPASLAVSLGQSVTISCRASESVEYYGTSLMQWYQQKPGQPPKLLIYGASDVESGVPARFSGSGSGTDFSLNIHPVEEDDIAMYFCQQSRKVPYTFGSGTKLEIKR
# notes: Complete antibody; Biotinylated as detection antibody in ELISA; labeled with Alexa Fluor 647 as detection antibody in SPFS; also called DF151 antibody
# Key:
# [1] = biological target: T1, soluble-type human DSG3-mouse IgG2aFc …; test: sandwich ELISA, luminescence over blank; immobilized DF151, detection DF151; antigen 10 pg/mL
# Protocol: (§1) Subsequently, the antigen solutions having the above-described concentrations were each added to the plate in an amount of 50 μL/well, and the plate was incubated at room temperature for 1 hour. Then, the antigen solution was removed, and the plate was washed with 0.05% Tween 20-PBS three times. Thereafter, the 1-μg/mL biotinylated antibody solution was added in an amount of 50 μL/well, and the plate was incubated at room temperature for 1 hour.
# (§2) Then, after removing the streptavidin-HRP solution and washing the plate with 0.05% Tween 20-PBS three times, a substrate solution (SuperSignal ELISA Femto Maximum Sensitivity Substrate (registered trademark); Pierce Biotechnology, Inc.) was added in an amount of 100 μL/well. One minute thereafter, the luminescence intensity was measured using a luminometer, Fluoroskan Ascent FL (trade name, Thermo Electron Corporation).
# (§3) The numerical values shown in Table 1 represent the minimum values of the antigen solution concentration having an S/N ratio of higher than 2 (hereinafter, referred to as “detection limit concentration”) and the unit of the numerical values is pg/mL. […]
# [2] = biological target: T1, soluble-type human DSG3-mouse IgG2aFc …; test: sandwich ELISA, luminescence over blank; immobilized DF151, detection MAB1720; antigen 25000 pg/mL
# Protocol: as §1, §2
# (§4) The numerical values shown in Table 1 represent the minimum values of the antigen solution concentration having an S/N ratio of higher than 2 (hereinafter, referred to as “detection limit concentration”) and the unit of the numerical values is pg/mL. The S/N ratio was determined by dividing the luminescence intensity at the respective antigen solution concentrations ([…]) by the luminescence intensity of an antigen-free blank antigen solution (0 μg/mL).
# [3] = biological target: T1, soluble-type human DSG3-mouse IgG2aFc …; test: sandwich ELISA, luminescence over blank; immobilized DF151, detection DF151; antigen 1000 pg/mL
# Protocol: as §1, §2, §4
# [4] = biological target: T1, soluble-type human DSG3-mouse IgG2aFc …; test: sandwich ELISA, luminescence over blank; immobilized DF151, detection MAB1720; antigen 40 pg/mL
# Protocol: as §1, §2, §4
# [5] = biological target: T1, soluble-type human DSG3-mouse IgG2aFc …; test: sandwich ELISA, luminescence over blank; immobilized DF151, detection MAB1720; antigen 5000 pg/mL
# Protocol: as §1, §2, §4
# [6] = biological target: T1, soluble-type human DSG3-mouse IgG2aFc …; test: sandwich ELISA, luminescence over blank; immobilized DF151, detection MAB1720; antigen 200 pg/mL
# Protocol: as §1, §2, §4
# [7] = biological target: T1, soluble-type human DSG3-mouse IgG2aFc …; test: sandwich ELISA, luminescence over blank; immobilized DF151, detection D219-3; antigen 10 pg/mL
# Protocol: as §1, §2, §4
# [8] = biological target: T1, soluble-type human DSG3-mouse IgG2aFc …; test: sandwich ELISA, luminescence over blank; immobilized DF151, detection D219-3; antigen 1000 pg/mL
# Protocol: as §1, §2, §4
# [9] = biological target: T1, soluble-type human DSG3-mouse IgG2aFc …; test: sandwich ELISA, luminescence over blank; immobilized DF151, detection D219-3; antigen 200 pg/mL
# Protocol: as §1, §2, §4
# [10] = biological target: T1, soluble-type human DSG3-mouse IgG2aFc …; test: sandwich ELISA, luminescence over blank; immobilized DF151, detection DF151; antigen 5000 pg/mL
# Protocol: as §1, §2, §4
# [11] = biological target: T1, soluble-type human DSG3-mouse IgG2aFc …; test: sandwich ELISA, luminescence over blank; immobilized DF151, detection D219-3; antigen 5000 pg/mL
# Protocol: as §1, §2, §4
# [12] = biological target: T1, soluble-type human DSG3-mouse IgG2aFc …; test: sandwich ELISA, luminescence over blank; immobilized DF151, detection MAB1720; antigen 1 pg/mL
# Protocol: as §1, §2, §3
binder,measurement,setting,value
B1,S/N ratio,[1],0.9
same,S/N ratio,[2],82.2
same,S/N ratio,[3],2.8
same,S/N ratio,[4],1.1
same,S/N ratio,[5],17.7
same,S/N ratio,[6],1.6
same,S/N ratio,[7],0.9
same,S/N ratio,[8],2.3
same,S/N ratio,[9],1
same,S/N ratio,[10],11.1
same,S/N ratio,[11],9.2
same,S/N ratio,[12],1
